Experimental data: the DeepSol protein solubility set

Assay: soluble on expression in E. coli; label from the status in PepcDB or PDB records

Sequence | soluble on expression in E. coli
MLAFIRFLFAGLLLVISHAFAATVQDEHGTFTLEKTPQRIVVLELSFADALAAVDVIPIGIADDNDAKRILPEVRAHLKPWQSVGTRAQPSLEAIAALKPDLIIADSSRHAGVYIALQQIAPVLLLKSRNETYAENLQSAAIIGEMVGKKREMQARLEQHKERMAQWASQLPKGTRVAFGTSREQQFNLHTQETWTGSVLASLGLNVPAAMAGASMPSIGLEQLLAVNPAWLLVAHYREESIVKRWQQDPLWQMLTAAQKQQVASVDSNTWARMRGIFAAERIAADTVKIFHHQPLTVVK | soluble
MLDPARSFDIIGDVHGCALTLERLLDALGYKRVAGVWRHPRRQALFLGDIVDRGPRIREALHIVHDMVEAGQAFCIMGNHEYNALGWVTPALPGSGKAYVREHTPRHARLIDETLTQFAQHPGDWHDFVNWFYQLPLFIDAGRFRLVHACWDPRLIEPLRQQYPDGRIDEHFIQASAVSGSFADTVCNRLLRGTDMRLPDGLTLTGGDGLTRAFFRTKFWEEDPKTYGDIVFQPDALPEEVASTPLSHSQKNALLRYDEDQPMLFVGHYWRSGRPAPIRANLACLDYSAVLYGKLVAYRLDDETRIDPHKFVWVDVDRPQANQLEHHHHHH | soluble
MAHHHHHHMTTLEKQLQSSTLSKQCRADLLNHVEEVETNSRRLPKKMITLPDPNLPSAVTMPTDNSVKRGTRSATAGANMARSLHYTTRKREKDEMVASRITSDRNLSGTYFKDCSHKFVNGARSWSDPFRSSRSRTALSGKDMDFVYRYAEAATGSAIERPQPADDASVAATAAYRKAFRQYKGRDPTAKEMEEAGRLVYAFDENCSVGVLQKPHSCYPHTHISAVKTHIRACPNQVYLPEVPPVRAARSEFPGPIPTWSSTKRTTTMATNGTYRPGHHQAKSLKWEAVSTVVGSR | not soluble
MSLKASELKKGFAIISNGKTLLIKDIEVTTPGGRGGSKIYKLRCTDLNTGARVDERYKSDDVLDTVEMNKRPISFSYIDGDEYVFMNNDDYTPYNFKKDEIEDELLFITEEIQGMSVVLVDGEAVAIELPSSVEMVIEETDPSIKGASASSRTKPARMPTGLVVQVPEYIATGDRIVINTAERKFMNRAEGHHHHHH | soluble
MAGFPGKEAGPPGGWRKCQEDESPENERHENFYAEIDDFAPSVLTPTGSDSGAGEEDDDGLYQVPTHWPPLMAPTGLSGERVPCRTQAAVTSNTGNSPGSRHTSCPFTLPRGAQPPAPAHQKPTAPTPKPRSRECGPSKTPDPFSWFRKTSCTEGGADSTSRSFMYQKGFEEGLAGLGLDDKSDCESEDESNFRRPSSHSALKQKNGGKGKPSGLFEHLAAHGREFSKLSKHAAQLKRLSGSVMNVLNLDDAQDTRQAKAQRKESMRVPIVTHLTNHVPVIKPACSLFLEGAPGVGKTTMLNHLKAVFGDLTIVVPEPMRYWTHVYENAIKAMHKNVTRARHGREDTSAEVLACQMKFTTPFRVLASRKRSLLVTESGARSVAPLDCWILHDRHLLSASVVFPLMLLRSQLLSYSDFIQVLATFTADPGDTIVWMKLNVEENMRRLKKRGRKHESGLDAGYLKSVNDAYHAVYCAWLLTQYFAPEDIVKVCAGLTTITTVCHQSHTPIIRSGVAEKLYKNSIFSVLKEVIQPFRADAVLLEVCLAFTRTLAYLQFVLVDLSEFQDDLPGCWTEIYMQALKNPAIRSQFFDWAGLSKVISDFERGNRD | not soluble
MADSTATSTPRAVPSHEDRPVYVIGGGPGGLAAAHALRAQGVRAVVLEKSDRVGASWRRHYDRLHLHTTRRLSALPGLPMPRSFGRWVSRDNVVRYLEKYVEHHQLEIVTGVEVSRVEPAPDGTGWLLHATGGRELTGSAVVVATGHNHTPHLPDWPGRDAYTGELLHAGDYRNATPHAGRDVLVVGVGNTGAEIAVDLVEGGASRVRLAVRTAPHIVRRSTAGWAAQFTGIVVRRLPVRLVDLLAGPMARLSVPDLSAQGLPRPDTGLYSRVREGSIPVQDVGLIDAVRKGRVEIVAAVDGFEDGKVVLADGNRIGPDVVIAATGYARALEDLVGHLDVLDGRGRPTVHGARTPRTAPGLYFTGFTNPISGMFRELAIDAEKIAKAVAKALARTTARTPALEHHHHHH | soluble
MGSDKIHHHHHHMNSALYVGKVRHRRFTPVTHRFDYALFMALIDLDEIPALPHAGIALERFAPASFYRGDYLGGGDIKTKAQDRIAELTGERLTGKVLLLCQLRYLGCYFNPVNFYYLYDEHNQLRWLLAEVRNTPWNERHTYAVVPDGSTTVSKAFHVSPFNPMDMVYHWRLTPPVERLRIHIENHRQGREFDATLLLHRQPLTRAALRKQLWSLPLMTIKIACTIYWQALKLWIKRSPVYPHPQSGRKDNP | not soluble
MSLGRGMQKQRFCLDTSAFTEPSVRKALGVKTVTELTDKVMDLIAEARIKLNISCHIPYPTVYNELMGFLENENCPRDVIVKVDTWLVKKTPNRYEIKIPSEIFYEYVKDLRERINKGMRIGEEHIIKATDMVYELSKKHPEMGKNEIINKVLSKTINTFRNKYRSALRVGTLDSAPDLDVLLLAKELDAAVVASDGGIEKWAQRLGLRFVDASDFPFMLEEYLKHNDRHLRIKYEGHHHHHH | soluble
PHRPVQESVANAYDALGGYLEAKADFFDPDEAAWIGNRHIDLAMSNTGVITAFNQCRSALFYRLRGKHRHPRTAKMLRYYFAAQDIHERISSAHVDYQEMSEKFKNTDIIFRIHRLLEMQGQACRNTAQALRASKDYVYSKRLGRAIEGCRQSLRLLSDSNDSPDIRHLRRLLDNLGSVDQQFRQLQHNGLQAENDRMGDTRIAALETSSLKNTWQAIRPQLNLESGVFRH | not soluble
MSDSPDSPPDAEPSIAARIAAVLPSLTPIHRRMGEYVLANPFRAATMRIDELANAVDASIATANRFARALGFDGYPALRAALVRGFEATLAPVERLRSAQEHEAGARGGELIDASFEQAL | not soluble
MGSDKIHHHHHHMIEQIGSVEEADAGKVLESLVLSFSPSLLPLRQRWRNNGLSADFLGDYVTTFFPGAGDDTTTADRQKHAKAAVSYIANELLENAMKYSAAESTRPITITLSLEAERITFIETNPVSRARAATFHSYATELIASDPMEMYLRILEEERSDDDGSGLGLITMINDYNASLSWRFEDPGEDTVMVSTIVQIPV | not soluble
MCQFIETIRIEDGQVYNLSYHTARMNRTRAAFWKEAAPIDLSGFISPPSLSGIWKCRIVYDKEIEEVGYTPYQMRMVSSLRPVASDTIDYSYKSTNREELNDLFARRGKADDILIVKDGYLTDTSIANIALYDGHTWYTPAHPLLQGTKRAELLDNRFIVEKDIRQAQLGDYSHIMLFNAMIDWKRLIIPVNEKYFIL | not soluble
MANHPRAGQPAQQSDLINVAQLTSQYYVLQPDAEDPAHAVKFGTSGHRGSSVRHSFNEAHILAIAQAIAEVRHQHGISGPCYVGKDTHALSEPAFISVLEVLTANGVDVVVQQDNGFTPTPAISHVILCHNAQGKALADGIVITPSHNPPEDGGIKYNPPNGGPADTNLTSVIEKRANQLLSQNLKGVKRQTLDKAWQSNHLREQDLLQPYVEGLVDVVDIPAIQQAGLKLGVDPLGGSGIAYWQRIAEYYKLDLTLVNNAIDQTFRFMHLDHDGVIRMDCSSESAMAGLLALRDKFDLAFANDPDYDRHGIVTPAGLMNPNHYLAVSINYLFQHRPQWGAGVAVGKTLVSSAMIDRVVADLGRKLVEVPVGFKWFVDGLHDGSFGFGGEESAGASFLRFNGTPWSTDKDGIIMCLLAAEITAVTGKDPQRHYDDLAQRFGAPSYNRIQAPATQAQKNALSRLSPEMVKANTLAGDPITARLTNAPGNGASIGGLKVMTENGWFAARPSGTEEAYKIYCESFLGAEHREKIEQEAVKIVSEVLAEAK | not soluble
GMLKLCGFAASNYYNKVKLALLEKNVPFEEVLAWIGETDTTATPAGKVPYMITESGSLCESEVINEYLEAAYPQTPLLPRDPMQAGKVREIVTFLELYLELTARELYPEAFFGGKVSDNVKERQLKLLSRYVPAFAKLAKFSPYVAGDTFTLADCAAAVHLPLVSSCTKIIYGKDLLADLPVKEYLKTLSERPSVQKVNADRKANTELMLSRNK | soluble
MAHHHHHHMSSTSTTHPQLLLQQSKVKYLMKVCRPLCQFTQKCNRGSWVERTFGAERKKASSASEDNDLLSMHLPFSSDTAPPCGYSTTEAVRLISLPYHPHVYAYCLFESRLIFERAVLHGAIAPNVKPSQFFVHPISVMRHPEKFKLFFGEERSDVLLRLLVDLLGEYDGDDRSVVQKCRAKGVSNENWVPFLRGLGLCLAMGDIASSQATFVMEDCITGGGADCGLSLPGSYEKRGSVAAELLMEASVELGSLTLANLSLSLYRQFLPEVPLTASKKVTICTTRCERRFLEWNQRCLKTGPRR | not soluble
GAGTSTPTTGNQNMSGNSGSIVQNFYMQQYQNSIDADLGDNVISPEGQGSNTSSSTSSSQSSGLGGWFSSLLNLGTKLLADKKTEETTNIEDRIETTVVGVTIINSQGSVGTTYCYSKPDGRPPSTVSDPVTRLGPTLSRHYTFKVGEWPHSQSHGHAWICPLPGDKLKKMGSFHEVVKAHHLVKNGWDVVVQVNASFAHSGALCVAAVPEYEHTHEKALKWSELEEPAYTYQQLSVFPHQLLNLRTNSSVHLVMPYIGPGPTTNSALHNPWTIVVLILSELTGPGQTVPVTMSVAPIDAMVNGPLPNPEAPIRVVSVPESDSFMSSVPDNSTPLYPKVVVPPRQVPGRFTNFIDVAKQTYSFCSISGKPYFEVTNTSGDEPLFQMDVSLSAAELHGTYVASLSSFFAQYRGSLNFNFIFTGAAATKAKFLVAFVPPHSAAPKTRDEAMACIHAVWDVGLNSAFSFNVPYSSPADFMAVYSAEATVVNVSGWLQVYALTALTSTDIAVNSKGRVLVAVSAGPDFSLRHPVDLPDKQVTNVGEDGEPGETEPRYALSPVDMHVHTDVSFLLDRFFDVETLELSNLTGSPNTHVLNPFGSTAQLAWARLLNTCTYFFSDLELSIQFKFTTTPSSVGEGFVWVKWFPVGAPTKTTDAWQLEGGGNSVRIQQLAVAGMSPTVVFKIAGSRSQACGFSVPYTSMWRVVPVFYNGWGAPTKEKATYNWLPGAHFGSILLTSDAHDKGGCYLRYRFPRASMYCPRPIAPAFTRPADKTRHKFPTNINKQCTNYSLLKLAGDVESNPG | soluble
MGHHHHHHGGHMSLKVFIDPDGDIEEIKEAFRLINPELYERLLKIDGSDEFFRYMVKPLRVSVRVNTLKAEVDEVVENLKELITGRVPWCEEGFYLSIDEFSRIPEHQLGLIFSQEAASMIPPLVMELEPKMTVLDIAASPGAKTTQIAQYLQNEGCIVANDVKHSRINILISNLQRCGVLIAKVTVKDGRYFGRFRNRFDAVLVDAPCSNMGMIRKNYRNIRLWKMRDCYGLSKLQKSLLMAAYKAVKPGGVVVYSTCTLEPIENEEVVDYILRNTDAEIEEVNLPVKGVEPFTKFDGKEYSEEVRKCLRLHPQSSDTEGFFVAKLRKPEGGS | soluble
MFLKSLIFVLTFQFSNGNPVEQVHLSLSGKADEMVVTWLTHDPRKFTC | not soluble
MSSSAAKYDVFQAIADPTRREVIRLLSDKELPISKITDHFPMSRTAVVKHLHILSEANLVSGRKSGREKIYRLHPEPLEELQQWLSYYERFWDNKLSMLKHIVENEE | not soluble
MGSDKIHHHHHHMNRQVIEFSKYNPSGNMTILVHSKHDASEYASIANQLMAATHVCCEQVGFIESTQNDDGNDFHLVMSGNEFCGNATMSYIHHLQESHLLKDQQFKVKVSGCSDLVQCAIHDCQYYEVQMPQAHRVVPTTINMGNHSWKALEIIYETYVHYVIPVKQVTTEIQHLVEAFVREQQWSHKYKTVGMMLFDEQRQFLQPLIYIPEIQSLIWENSCGSGTASIGVFNNYQRNDACKDFTVHQPGGSILVTSKRCHQLGYQTSIKGQVTTVATGKAYIE | not soluble
